From patent publication US5863776A, “Method of preparing apoenzyme” (Research Development Foundation, priority 1996, dated 1999)

Legend:
MAO B [1] = biological target: T1, MAO B (Homo sapiens, UniProt P27338, E34D); test: [^14 C] FAD incorporation into wild-type or mutant MAO B in Rib^- COS-7 cells (immunoprecipitation, fluorography); assay type: binding; conditions: densitometer
T1 construct: expressed in transfected cells; host or cells: Rib+ COS-7, transient
T1 sequence (P27338 2-520 E34D): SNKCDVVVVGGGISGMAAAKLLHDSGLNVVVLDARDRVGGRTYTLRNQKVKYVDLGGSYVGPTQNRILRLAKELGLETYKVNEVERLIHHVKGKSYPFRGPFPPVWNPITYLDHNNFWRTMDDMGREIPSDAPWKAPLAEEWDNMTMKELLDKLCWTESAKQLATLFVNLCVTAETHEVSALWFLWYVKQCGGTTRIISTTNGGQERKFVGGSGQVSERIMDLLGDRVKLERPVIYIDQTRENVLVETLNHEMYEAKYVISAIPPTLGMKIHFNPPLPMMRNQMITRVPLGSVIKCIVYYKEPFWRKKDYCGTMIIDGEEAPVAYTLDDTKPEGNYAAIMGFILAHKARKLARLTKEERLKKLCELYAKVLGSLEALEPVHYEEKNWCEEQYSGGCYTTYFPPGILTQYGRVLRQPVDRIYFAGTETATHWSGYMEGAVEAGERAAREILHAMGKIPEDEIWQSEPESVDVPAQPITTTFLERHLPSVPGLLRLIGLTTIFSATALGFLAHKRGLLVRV
Procedure: (§1) Mutagenesis was carried out by the method of Deng and Nickoloff (22) using a Transformer Site-directed Mutagenesis kit (Clontech). Glu in position 34 was replaced with Asp (E34D), Gln (E34Q), or Ala (E34A), and Val in position 10 was replaced with Ile (V10I) as described by Kwan et al. (18).
(§2) Wild-type or mutant MAO B cDNAs were transiently transfected into COS-7 cells by electroporation (23) as previously described (18). Briefly, Rib^+ - or Rib^- COS-7 cells were harvested during late log phase growth and resuspended to a concentration of 3.1×10^6 cells/ml in either riboflavin-containing or riboflavin-free medium, respectively. Wild-type or mutant MAO B cDNAs ([…]) were added to 0.8 ml of cell suspension. […] Electroporation was carried out in a Bio-Rad Gene Pulser with a setting of 250 V and 500 μF. Cells were resuspended in 15 ml of riboflavin-containing or riboflavin-free medium and incubated at 37° C. with 5% CO2. Transfected COS-7 cells were harvested at 48 hours and homogenized in a lysis solution containing 20 mM Tris-HCl, 1 mM EDTA, 0.5 mM PMSF, pH 8.0. The homogenate was diluted with an equal volume of the same buffer supplemented with 300 mM NaCl to obtain a 150 mM final NaCl concentration. Triton X-100 (Pierce) was added to the lysate to give a final concentration of 0.25%, and the samples were allowed to stir for 50 min. at 4° C. to extract MAO B from the outer mitochondrial membrane. After Triton extraction, the lysate was centrifuged at 1300×g for 5 min. at 4° C. to remove insoluble cell debris.
(§3) Transfected Rib^+ - or Rib^- COS-7 cells were homogenized, and extracted with 0.25% Triton X-100 for 50 minutes at 4° C. The cell lysates were centrifuged at 1300×g for 5 minutes, and an aliqout of each supernatant was analyzed for MAO B concentration by ELISA. All supernatants were then adjusted to equal MAO B concentration and incubated with polyclonal goat anti-MAO B antibody (10 μg) overnight at 4° C. Protein-G Sepharose beads (Pierce) were added (50 μl) and incubation was continued for 3 hours. The protein-G Sepharose/goat antibody/MAO B immmunocomplex was collected by centrifugation at 10,000×g for 20 seconds and washed 6 times with 150 μl of 20 mM Tris buffer, pH 8.0. The immunocomplex was then dissolved in SDS-PAGE sample buffer and analyzed by Western blot or fluorography.
(§4) The immunoprecipitated proteins (obtained as described above) were subjected to electrophoresis in a 10% SDS-polyacrylamide gel and examined by Western blotting as previously described (18). The immunoprecipitated proteins (obtained as described above) were subjected to electrophoresis in a 10% SDS-polyacrylamide gel. The SDS-PAGE gel was fixed by soaking in 7% acetic acid, 10% methanol, 83% H2 O for 1 hour, and then processed for fluorography as described by Bonner and Laskey (27). The dried gel was exposed to Kodak X-OMAT AR film at -80° C. for 2 weeks.
(§5) The expressed wild-type and variant MAO Bs were adjusted to equal concentrations using ELISA before immunoprecipitation, and then analyzed by fluorography. The amount of incorporation of [^14 C] […] FAD was incorporated into the enzyme.

MAO B [2] = test: as above; assay type: binding, human; conditions: about 59 kDa; equal MAO B concentrations
Procedure: as §1, §2, §3, §4, §5

MAO B [3] = biological target: T1, MAO B; conditions: cited from earlier work

[^14 C] FAD incorporation, percent of wild-type (MAO B [1]): about 10%
B1: E34D: MAO B with Glu in position 34 replaced with Asp (protein, UniProt P27338 2-520, looked up, variant E34D)
Amine oxidase …: T1 sequence (P27338 2-520 E34D)
[^14 C] FAD incorporation (band on fluorogram) (MAO B [2]): faint band | reduction in activity (MAO B [3]; Rib^+ COS-7 cells): 93% | activity, % of wild-type activity (MAO B [3]): 7%
